Assay results published in PMC3673036 (Bioscience Reports, 2013).

Experiments:
EphB2 [1] = biological target: T1, EphB2 (Homo sapiens, UniProt P29323); test: ADP-Glo luminescent kinase assay, Michaelis-Menten fit; assay type: biochemical; details: […] poly-(Glu:Tyr) […], MgCl2, Hepes pH […]°C; read-out: Km ATP
T1 construct: kinase domain 604-898 without juxtamembrane region; N-terminal His6-TEV tag cleaved (GSS left); E. coli BL21 Star (DE3), PTP1B co-expressed; unphosphorylated; synthetic codon-optimized gene
T1 sequence (P29323 604-898): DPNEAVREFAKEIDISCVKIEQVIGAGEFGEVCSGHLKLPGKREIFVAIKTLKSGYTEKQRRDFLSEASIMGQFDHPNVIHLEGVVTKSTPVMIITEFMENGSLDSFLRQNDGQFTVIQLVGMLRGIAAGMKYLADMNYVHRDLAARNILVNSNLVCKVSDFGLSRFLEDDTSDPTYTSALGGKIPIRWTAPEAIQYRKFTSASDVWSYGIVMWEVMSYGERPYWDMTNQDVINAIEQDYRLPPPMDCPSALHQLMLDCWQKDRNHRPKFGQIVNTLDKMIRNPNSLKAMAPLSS
Source text: ADP-Glo luminescent kinase assay, Michaelis-Menten fit on EphB2

EphB1 = biological target: T2, EphB1 (Homo sapiens, UniProt P54762); test: ADP-Glo luminescent kinase assay; assay type: biochemical; details: ATP and poly-(Glu:Tyr) […] at Km of each kinase; MgCl2, Hepes pH […]°C, […] min, […] DMSO; unreliable: below assay tight binding limit of about […]
T2 construct: kinase domain 602-896 without juxtamembrane region; N-terminal His6-TEV tag cleaved (GSS left); E. coli BL21 Star (DE3), PTP1B co-expressed; unphosphorylated; synthetic codon-optimized gene
T2 sequence (P54762 602-896): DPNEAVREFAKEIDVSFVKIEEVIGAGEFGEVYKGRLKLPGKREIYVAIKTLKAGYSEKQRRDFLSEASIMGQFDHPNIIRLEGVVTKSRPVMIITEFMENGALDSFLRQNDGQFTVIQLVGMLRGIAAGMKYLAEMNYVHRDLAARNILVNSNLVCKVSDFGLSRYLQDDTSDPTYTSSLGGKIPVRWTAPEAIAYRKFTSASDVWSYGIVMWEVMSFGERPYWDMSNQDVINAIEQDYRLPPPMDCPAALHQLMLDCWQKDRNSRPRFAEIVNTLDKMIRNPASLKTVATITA
Source text: ADP-Glo luminescent kinase assay on EphB1

EphB2 [2] = biological target: T1, EphB2; test: ADP-Glo luminescent kinase assay; assay type: biochemical; details: ATP and poly-(Glu:Tyr) […] at Km of each kinase; MgCl2, Hepes pH […]°C, […] min, […] DMSO; unreliable: below assay tight binding limit of about […]
Source text: ADP-Glo luminescent kinase assay on EphB2

[3] = substrate: Nc1ncnc2c1ncn2[C@@H]1O[C@H](COP(=O)(O)OP(=O)(O)OP(=O)(O)O)[C@@H](O)[C@H]1O; test: ADP-Glo luminescent kinase assay, Michaelis-Menten fit; assay type: biochemical, Homo sapiens; details: […] poly-(Glu:Tyr) […], MgCl2, Hepes pH […]
Source text: ADP-Glo luminescent kinase assay, Michaelis-Menten fit on EphB4

[4] = substrate: Nc1ncnc2c1ncn2[C@@H]1O[C@H](COP(=O)(O)OP(=O)(O)OP(=O)(O)O)[C@@H](O)[C@H]1O; test: as above; assay type: biochemical, Homo sapiens; details: […] poly-(Glu:Tyr) […], MgCl2, Hepes pH […]; remark: listed apart in the source
Source text: ADP-Glo luminescent kinase assay, Michaelis-Menten fit on EphB1

[5] = substrate: Nc1ncnc2c1ncn2[C@@H]1O[C@H](COP(=O)(O)OP(=O)(O)OP(=O)(O)O)[C@@H](O)[C@H]1O; test: as above; assay type: biochemical, Homo sapiens; details: […] poly-(Glu:Tyr) […], MgCl2, Hepes pH […]; remark: listed apart in the source
Source text: ADP-Glo luminescent kinase assay, Michaelis-Menten fit on EphB3

Nc1ncnc2c1ncn2[C@@H]1O[C@H](COP(=O)(O)OP(=O)(O)OP(=O)(O)O)[C@@H](O)[C@H]1O [ATP]
Km (EphB2 [1]): 751 ± 80 µM

Cc1nc(Nc2ncc(C(=O)Nc3c(C)cccc3Cl)s2)cc(N2CCN(CCO)CC2)n1 [Dasatinib]
EphB1 / IC50 (EphB1): 0.01 µM
EphB2 / IC50 (EphB2 [2]): 7 nM

B1: EphB4 (Homo sapiens) (protein)
chain: DPNEAVREFAKEIDVSYVKIEEVIGAGEFGEVCRGRLKAPGKKESCVAIKTLKGGYTERQRREFLSEASIMGQFEHPNIIRLEGVVTNSMPVMILTEFMENGALDSFLRLNDGQFTVIQLVGMLRGIASGMRYLAEMSYVHRDLAARNILVNSNLVCKVSDFGLSRFLEENSSDPTYTSSLGGKIPIRWTAPEAIAFRKFTSASDAWSYGIVMWEVMSFGERPYWDMSNQDVINAIEQDYRLPPPPDCPTSLHQLMLDCWQKDRNARPRFPQVVSALDKMIRNPASLKIVARENG
notes: kinase domain 598-892 without juxtamembrane region; N-terminal His6-TEV tag cleaved (GSS left); E. coli BL21 Star (DE3), PTP1B and GroES/GroEL co-expressed; unphosphorylated; synthetic codon-optimized gene
Km [3]: 497 ± 39 µM
kcat [3]: 0.51 ± 0.01 s⁻¹

B2: EphB1 (Homo sapiens) (protein)
chain: DPNEAVREFAKEIDVSFVKIEEVIGAGEFGEVYKGRLKLPGKREIYVAIKTLKAGYSEKQRRDFLSEASIMGQFDHPNIIRLEGVVTKSRPVMIITEFMENGALDSFLRQNDGQFTVIQLVGMLRGIAAGMKYLAEMNYVHRDLAARNILVNSNLVCKVSDFGLSRYLQDDTSDPTYTSSLGGKIPVRWTAPEAIAYRKFTSASDVWSYGIVMWEVMSFGERPYWDMSNQDVINAIEQDYRLPPPMDCPAALHQLMLDCWQKDRNSRPRFAEIVNTLDKMIRNPASLKTVATITA
notes: kinase domain 602-896 without juxtamembrane region; N-terminal His6-TEV tag cleaved (GSS left); E. coli BL21 Star (DE3), PTP1B co-expressed; unphosphorylated; synthetic codon-optimized gene
Km [4]: 555 ± 36 µM
kcat [4]: 0.80 ± 0.02 s⁻¹

B3: EphB3 (Homo sapiens) (protein)
chain: DPNEAVREFAKEIDVSCVKIEEVIGAGEFGEVCRGRLKQPGRREVFVAIKTLKVGYTERQRRDFLSEASIMGQFDHPNIIRLEGVVTKSRPVMILTEFMENCALDSFLRLNDGQFTVIQLVGMLRGIAAGMKYLSEMNYVHRDLAARNILVNSNLVCKVSDFGLSRFLEDDPSDPTYTSSLGGKIPIRWTAPEAIAYRKFTSASDVWSYGIVMWEVMSYGERPYWDMSNQDVINAVEQDYRLPPPMDCPTALHQLMLDCWVRDRNLRPKFSQIVNTLDKLIRNAASLKVIASAQS
notes: kinase domain 616-910 without juxtamembrane region; N-terminal His6-TEV tag cleaved (GSS left); E. coli BL21 Star (DE3), PTP1B co-expressed; unphosphorylated; synthetic codon-optimized gene
Km [5]: 506 ± 48 µM
kcat [5]: 0.43 ± 0.01 s⁻¹

B4: EphB3 (Homo sapiens; C717G) (protein)
chain: DPNEAVREFAKEIDVSCVKIEEVIGAGEFGEVCRGRLKQPGRREVFVAIKTLKVGYTERQRRDFLSEASIMGQFDHPNIIRLEGVVTKSRPVMILTEFMENGALDSFLRLNDGQFTVIQLVGMLRGIAAGMKYLSEMNYVHRDLAARNILVNSNLVCKVSDFGLSRFLEDDPSDPTYTSSLGGKIPIRWTAPEAIAYRKFTSASDVWSYGIVMWEVMSYGERPYWDMSNQDVINAVEQDYRLPPPMDCPTALHQLMLDCWVRDRNLRPKFSQIVNTLDKLIRNAASLKVIASAQS
notes: as for B3
Km [5]: 659 ± 67 µM
kcat [5]: 0.86 ± 0.03 s⁻¹
